Data: IntAct's records for PubMed 21370995

Biological target: kcru_mouse Ckmt1 (UniProt P30275)

effect of a mutation on the interaction: increasing interaction
Substance: Leucine-rich repeat serine/threonine-protein kinase 2 (Homo sapiens), Q5S007 G2019S
